Test results reported in publication PMC6529018.

Molecular target: Recombinant His-BifA (full length) (Streptococcus equi subsp. zooepidemicus ATCC35246)
Assay: SPR; Biacore X100; His-BifA and its variants immobilised on NTA sensorchips, moesin, moesin T558A or moesin T558D injected

Substance | Kd [nM]
Recombinant moesin T558D, non-tagged (from UniProt P26038 1-577) (natural protein) | 10.8
Recombinant moesin T558A, non-tagged (from UniProt P26038 1-577) (natural protein) | 737
